In the Human Domainome abundance scans (Beltran et al. 2025):
± gives the uncertainty stated by the source.

B1: Membrane-associated guanylate kinase, WW and PDZ domain-containing protein 2, residues 601 to 682; numbered along this chain, Q86UL8 (parent)
chain: AELMTLTIVKGAQGFGFTIADSPTGQRVKQILDIQGCPGLCEGDLIVEINQQNVQNLSHTEVVDILKDCPIGSETSLIIHRG
B2: Endonuclease CUE2, residues 9 to 47; numbered along this chain, P36075 (parent)
chain: HESKLSILMDMFPAISKSKLQVHLLENNNDLDLTIGLLL

Variants of: B1
Experiment: abundance fitness (aPCA) (normalised: wild type 0, dead -1); higher = more abundant; growth selection in yeast, the domain comes from the species named
Conditions: Homo sapiens

Abundance fitness: each site, then its substitutions
L6: I 0.008 ± 0.061, K -0.098 ± 0.044, P -0.204 ± 0.053, R -0.123 ± 0.031, G -0.315 ± 0.032, D -0.366 ± 0.082, W -0.147 ± 0.043, Q -0.083 ± 0.053, N -0.166 ± 0.074, T -0.059 ± 0.05, C 0.038 ± 0.053, Y -0.064 ± 0.078, S -0.075 ± 0.042, F 0.003 ± 0.091, A -0.124 ± 0.036, M -0.059 ± 0.049, V -0.021 ± 0.036, H 0.007 ± 0.073, E -0.193 ± 0.043
E2: G -0.049 ± 0.034, W -0.214 ± 0.046, P -0.205 ± 0.043, I -0.139 ± 0.065, Y -0.094 ± 0.064, N 0.009 ± 0.063, M -0.001 ± 0.044, S -0.061 ± 0.034, Q -0.066 ± 0.042, C -0.039 ± 0.054, V -0.077 ± 0.038, K -0.093 ± 0.046, R -0.098 ± 0.032, L -0.131 ± 0.035, A -0.032 ± 0.034, H -0.113 ± 0.053, F -0.113 ± 0.059, T -0.034 ± 0.038
A1: C -0.015 ± 0.32, F -0.589 ± 0.47, E -0.024 ± 0.11, G -0.113 ± 0.065, R 0.216 ± 0.31, W -0.397 ± 0.35, V 0.093 ± 0.063, D -0.198 ± 0.13
L3: D -0.024 ± 0.056, N 0.056 ± 0.053, W -0.162 ± 0.035, M 0.029 ± 0.041, P -0.2 ± 0.037, V -0.032 ± 0.031, I 0.014 ± 0.06, S -0.028 ± 0.032, T 0.015 ± 0.035, K 0.042 ± 0.038, H 0.035 ± 0.047, E 0.038 ± 0.039, Q 0.014 ± 0.037, C -0.095 ± 0.047, F 0.016 ± 0.066, A -0.03 ± 0.033, G -0.018 ± 0.027
T7: F -0.017 ± 0.068, E -0.133 ± 0.039, L -0.075 ± 0.036, M -0.083 ± 0.059, I -0.013 ± 0.064, C -0.027 ± 0.042, G -0.168 ± 0.03, A -0.008 ± 0.035, K 0.002 ± 0.05
M4: N -0.063 ± 0.076, Y -0.022 ± 0.062, L -0.078 ± 0.031, H -0.026 ± 0.065, T -0.014 ± 0.038, D -0.013 ± 0.056, S -0.097 ± 0.033, P -0.081 ± 0.04, A -0.1 ± 0.034, V -0.039 ± 0.031, I -0.061 ± 0.054, F 0.058 ± 0.054, E -0.106 ± 0.044, W -0.102 ± 0.032, C -0.136 ± 0.041, Q -0.092 ± 0.044, G -0.118 ± 0.029, K -0.002 ± 0.055, R -0.157 ± 0.026
T5: E -0.092 ± 0.054, Y -0.159 ± 0.057, A -0.098 ± 0.043, D -0.024 ± 0.075, H -0.139 ± 0.067, M 0.029 ± 0.068, K -0.024 ± 0.057, C -0.142 ± 0.058, N 0.03 ± 0.066, V -0.088 ± 0.037, G -0.121 ± 0.042, W -0.208 ± 0.051, Q -0.088 ± 0.05, R -0.167 ± 0.036, L -0.101 ± 0.039, F -0.217 ± 0.097, I -0.169 ± 0.12, S 0.02 ± 0.042, P -0.033 ± 0.048

Variants of: B2
Experiment: as above
Conditions: Saccharomyces cerevisiae (strain ATCC 204508 / S288c)

Abundance fitness: each site, then its substitutions
L37: P -0.099 ± 0.046, S 0.026 ± 0.04, K 0.045 ± 0.083, E 0.001 ± 0.041, H -0.034 ± 0.086, V -0.054 ± 0.038, N -0.003 ± 0.075, C 0.06 ± 0.06, M -0.042 ± 0.042, W -0.128 ± 0.047, A 0.055 ± 0.033, Q -0.016 ± 0.055, Y 0.007 ± 0.054, D -0.049 ± 0.075, T 0.098 ± 0.048, G -0.014 ± 0.038, R 0.081 ± 0.041
L31: Q -0.483 ± 0.077, M -0.211 ± 0.099, P -1.01 ± 0.21, N -0.881 ± 0.37, S -0.816 ± 0.093, T -0.35 ± 0.046, V 0.136 ± 0.033, W -0.694 ± 0.085, G -0.913 ± 0.084, E -0.633 ± 0.11, I -0.064 ± 0.17, H -0.676 ± 0.27, R -0.841 ± 0.072, K -0.752 ± 0.18, C -0.388 ± 0.053
N29: F -0.059 ± 0.3, W 0.039 ± 0.038, V -0.262 ± 0.051, H -0.117 ± 0.14, A -0.086 ± 0.041, D -0.082 ± 0.11, M -0.008 ± 0.063, S -0.065 ± 0.05, P -0.324 ± 0.088, T -0.402 ± 0.088, R -0.222 ± 0.035, Q 0.037 ± 0.082, L -0.112 ± 0.058, C 0.052 ± 0.057, K -0.364 ± 0.076
N27: S -0.164 ± 0.044, G -0.243 ± 0.042, T -0.273 ± 0.062, V -0.415 ± 0.062, L -0.325 ± 0.051, R -0.244 ± 0.04, Q -0.132 ± 0.072, K -0.267 ± 0.14, W -0.364 ± 0.074, M -0.191 ± 0.077, P -0.997 ± 0.12
